In ChEMBL document CHEMBL6109039, “Designed and synthesized novel tripeptides targeting diabetes and its related pathologies” (Eur J Med Chem, 2025) one finds Vmax and Km data, which are given here for one protein.

Compound in data set [1]: N=C(N)NCCC[C@H](N)C(=O)N[C@@H](Cc1c[nH]c2ccccc12)C(=O)N[C@@H](Cc1c[nH]c2ccccc12)C(=O)O
Put plainly: Inhibition of porcine pancreatic Alpha-amylase using starch as substrate assessed as maximum velocity pre-incubated for 20 mins followed by substrate addition and measured after 15 mins by Lineweaver-Burk plot analysis (reference value: 0.666). The following applies: Sus scrofa; time 35.0 min.

Compound in data set [2]: N=C(N)NCCC[C@H](N)C(=O)N[C@@H](Cc1c[nH]c2ccccc12)C(=O)N[C@@H](Cc1c[nH]c2ccccc12)C(=O)O
Briefly: Inhibition of porcine pancreatic Alpha-amylase using starch as substrate assessed as Km pre-incubated for 20 mins followed by substrate addition and measured after 15 mins by Lineweaver-Burk plot analysis (reference value: 0.657 mM). Conditions: Sus scrofa; time 35.0 min.

B1: Pancreatic alpha-amylase (Sus scrofa), P00690 (protein)
chain: MKLFLLLSAFGFCWAQYAPQTQSGRTSIVHLFEWRWVDIALECERYLGPKGFGGVQVSPPNENIVVTNPSRPWWERYQPVSYKLCTRSGNENEFRDMVTRCNNVGVRIYVDAVINHMCGSGAAAGTGTTCGSYCNPGNREFPAVPYSAWDFNDGKCKTASGGIESYNDPYQVRDCQLVGLLDLALEKDYVRSMIADYLNKLIDIGVAGFRIDASKHMWPGDIKAVLDKLHNLNTNWFPAGSRPFIFQEVIDLGGEAIQSSEYFGNGRVTEFKYGAKLGTVVRKWSGEKMSYLKNWGEGWGFMPSDRALVFVDNHDNQRGHGAGGASILTFWDARLYKVAVGFMLAHPYGFTRVMSSYRWARNFVNGQDVNDWIGPPNNNGVIKEVTINADTTCGNDWVCEHRWRQIRNMVWFRNVVDGQPFANWWANGSNQVAFGRGNRGFIVFNNDDWQLSSTLQTGLPGGTYCDVISGDKVGNSCTGIKVYVSSDGTAQFSISNSAEDPFIAIHAESKL
For orientation: Km means the substrate concentration at which the rate is half of its maximum. Take B1: the Vmax in data set [1] was 0.574. For the same protein, the Michaelis constant (Km) in data set [2] was 704 µM.
